US20020106676A1 (MYRIAD GENETICS, published 2002)

Biological target: T1, PN7740, amino acids 27-321 (prey of Example 34) (Saccharomyces cerevisiae; human, UniProt P04386 768-881)
T1 construct: also called novel protein PN7740
T1 sequence: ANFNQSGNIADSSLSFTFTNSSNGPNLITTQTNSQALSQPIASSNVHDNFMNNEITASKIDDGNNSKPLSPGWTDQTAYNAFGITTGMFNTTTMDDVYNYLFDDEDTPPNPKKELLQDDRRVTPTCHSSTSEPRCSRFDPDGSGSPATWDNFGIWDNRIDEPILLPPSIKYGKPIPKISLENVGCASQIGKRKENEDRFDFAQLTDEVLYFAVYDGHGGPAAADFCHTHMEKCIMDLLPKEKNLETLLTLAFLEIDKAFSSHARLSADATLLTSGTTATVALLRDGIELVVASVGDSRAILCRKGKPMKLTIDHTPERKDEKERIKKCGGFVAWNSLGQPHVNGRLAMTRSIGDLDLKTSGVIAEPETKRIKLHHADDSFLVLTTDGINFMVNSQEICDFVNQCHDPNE
Assay: yeast two-hybrid search
Protocol: The resulting diploid yeast cells expressing proteins interacting with the bait protein were selected for the ability to synthesize tryptophan, leucine, histidine, and adenine. DNA was prepared from each clone, transformed by electroporation into E. coli strain KC8 (Clontech KC8 electrocompetent cells, Catalog No. C2023- 1), and the cells were selected on ampicillin-containing plates in the absence of either tryptophane (selection for the bait plasmid) or leucine (selection for the library plasmid). DNA for both plasmids was prepared and sequenced by the dideoxynucleotide chain termination method. […] Clones that gave a positive signal in the p-galactosidase assay were considered false-positives and discarded. Plasmids for the remaining clones were transformed into yeast cells together with the original bait plasmid. Clones that gave a positive signal in the p-galactosidase assay were considered true positives.

B1: PSD95, amino acids 149-255 (bait of Example 34) (other, UniProt P04386 1-147, looked up)
chain: MKLLSSIEQACDICRLKKLKCSKEKPKCAKCLKNNWECRYSPKTKRSPLTRAHLTEVESRLERLEQLFLLIFPREDLDMILKMDSLQDIKALLTGLFVQDNVNKDAVTDRLASVETDMPLTLRQHRISATSSSEESSNKGQRQLTVSMRRKPPAEKVMEIKLIKGPKGLGFSIAGGVGNQHIPGDNSIYVTKIIEGGAAHKDGRLQIGDKILAVNSVGLEDVMHEDAVAALKNTYDVVYLKVAKPSNAYLSDSY
notes: also called DLG4; SAP-90
binding result: binds
